The source of these data is patent publication US20110091477A1 (Genentech, published 2011).

The target in one experiment is T1, matriptase (UniProt Q9Y5Y6 615-855, limits assumed).
T1 sequence (looked up): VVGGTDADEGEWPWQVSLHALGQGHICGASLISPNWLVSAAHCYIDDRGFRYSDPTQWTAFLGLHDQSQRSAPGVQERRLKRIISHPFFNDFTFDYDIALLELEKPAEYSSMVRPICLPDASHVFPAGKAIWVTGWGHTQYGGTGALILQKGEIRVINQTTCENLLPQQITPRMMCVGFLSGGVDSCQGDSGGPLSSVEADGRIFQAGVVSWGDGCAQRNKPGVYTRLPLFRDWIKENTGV
In words: direct binding ELISA on coated matriptase, anti-human antibody HRP conjugate, OD 450 nm. The method, then:
(§1) FIG. 9: (a) Antibody specificity. In a direct binding ELISA, 96-well plates were coated with […] of HGFA, matriptase (Kirchhofer et al. (2003) J Biol Chem 278:36341-36349), urokinase (American Diagnostica), or factor XIIa (American Diagnostica) and incubated with […] of anti-HGFA antibodies in PBS, 0.05% (v/v) Tween-20 (PBT) buffer. After washing, bound antibodies were detected by addition of anti-human antibody HRP conjugate (diluted 1:2,500 in PBT buffer) and TMB substrate. Absorbance at 450 nm was measured on a microplate reader.
(§2) Competition HGFA binding ELISA experiments: For binding specificity measurements, 96-well Maxisorp plates were coated with 2 μg/ml of HGFA, matriptase, urokinase-type plasminogen activator or factor XIIa and incubated with 10 μg/ml of anti-HGFA IgG in PBST buffer for at least 1 hour at room temperature. The plates were washed with PBT buffer and bound antibodies were detected with anti-human antibody HRP conjugate diluted 1:2500 in PBST buffer, developed with TMB substrate for approximately 5 minutes, quenched with 1 M H₃PO₄, and absorbance was measured on a microplate reader at 450 nm.
Background: ELISA stands for enzyme-linked immunosorbent assay.

Experiment [1] concerns the target T2, HGFA (Val373-Ser655) (human, UniProt Q04756 373-655).
T2 construct: a tag is not described; also called human HGFA
T2 sequence: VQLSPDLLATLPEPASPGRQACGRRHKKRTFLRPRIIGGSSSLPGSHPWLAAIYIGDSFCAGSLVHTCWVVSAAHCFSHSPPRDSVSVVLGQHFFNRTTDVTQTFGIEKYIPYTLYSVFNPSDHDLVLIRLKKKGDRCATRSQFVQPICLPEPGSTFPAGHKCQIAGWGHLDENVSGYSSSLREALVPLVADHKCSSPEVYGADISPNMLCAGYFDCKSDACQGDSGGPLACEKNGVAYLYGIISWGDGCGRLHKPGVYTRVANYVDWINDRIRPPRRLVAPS
In words: SPR (BIAcore 3000), IgG captured on anti-human IgG, HGFA injected, 25 C. An excerpt:
(§3) Antibody reformatting and determination of dissociation rate constants to HGFA: Anti-HGFA Fabs were reformatted into human IgG1 by cloning the VL and VH regions of individual clones into LPG3 and LPG4 vector, respectively (Liang et al, 2007). The full-length antibodies were transiently expressed in Chinese Hamster Ovary cells and purified on a protein-A column. To determine binding affinities of the reformatted anti-HGFA antibodies, surface plasmon resonance measurements on a BIAcore™-3000 instrument (GE Health Care, NJ) were performed. Rabbit anti-human IgG were chemically immobilized (amine coupling) on CM5 biosensor chips and the anti-HGFA antibodies were captured to give approximately 250 response units (RU). For kinetics measurements, two-fold serial dilutions of HGFA or active site-blocked HGFA (0.9 nM to 250 nM) were injected in PBT buffer at 25° C. with a flow rate of 30 μl/min. HGFA-KQLR (“KQLR” disclosed as SEQ ID NO: 10) was produced by incubating HGFA with two fold molar excess of Ac-KQLR-cmk (“KQLR” disclosed as SEQ ID NO: 10) for 2 hours at room temperature, followed by size exclusion chromatography to remove non-incorporated Ac-KQLR-cmk (“KQLR” disclosed as SEQ ID NO: 10). Association rates (kₒₙ) and dissociation rates (koff) were obtained by using a simple one-to-one Langmuir binding model (BIAEvaluation) and the equilibrium dissociation constants (KD) were calculated (koff/kₒₙ). Longer injection (5 min) of 2-fold serial dilution of HGFA or HGFA-KQLR (“KQLR” disclosed as SEQ ID NO: 10) (1.5 nM to 3000 nM) over captured antibody (Ab40.ΔTrp) sensor chip was implemented to achieve maximal binding (Rₘₐₓ) and reach the steady state.

The target in another experiment is T3, factor XIIa (UniProt P00748 20-615, limits assumed).
T3 construct: also called FXIIa; coagulation factor XIIa
T3 sequence (looked up): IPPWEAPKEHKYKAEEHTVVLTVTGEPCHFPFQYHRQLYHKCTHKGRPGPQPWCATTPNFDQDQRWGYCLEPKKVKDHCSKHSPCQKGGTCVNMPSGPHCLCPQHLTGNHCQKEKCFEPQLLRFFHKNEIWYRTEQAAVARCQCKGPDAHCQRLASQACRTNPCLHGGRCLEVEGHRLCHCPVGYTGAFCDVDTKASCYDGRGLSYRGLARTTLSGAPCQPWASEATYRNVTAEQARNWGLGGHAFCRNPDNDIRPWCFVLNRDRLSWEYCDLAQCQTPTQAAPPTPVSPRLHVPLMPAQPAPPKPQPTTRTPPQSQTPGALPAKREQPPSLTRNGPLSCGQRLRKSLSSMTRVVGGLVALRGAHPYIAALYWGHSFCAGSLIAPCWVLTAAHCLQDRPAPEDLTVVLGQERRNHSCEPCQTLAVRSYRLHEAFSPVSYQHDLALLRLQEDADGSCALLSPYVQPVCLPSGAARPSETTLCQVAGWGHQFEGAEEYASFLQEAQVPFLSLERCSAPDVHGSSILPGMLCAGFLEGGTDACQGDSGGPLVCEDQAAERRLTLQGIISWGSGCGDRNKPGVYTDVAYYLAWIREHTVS
In words: direct binding ELISA on coated factor XIIa, anti-human antibody HRP conjugate, OD 450 nm. On the procedure: as §1, §2

Experiment [2] concerns the target urokinase-type plasminogen activator (UniProt P00749 21-431, limits assumed). In words: direct binding ELISA on coated urokinase, anti-human antibody HRP conjugate, OD 450 nm. On the procedure:
as §1, §2

Experiment [3] addresses T4, HGFA-KQLR complex (human, UniProt Q04756 373-655, N-terminal acetyl; C-terminal chloromethyl ketone, reacted with Ser195 and His57 of HGFA; active-site Ser195 and His57 (chymotrypsinogen numbering) covalently linked to Ac-KQLR-cmk). In words: SPR (BIAcore 3000), steady state affinity, IgG captured, HGFA-KQLR complex injected. From the text: (§4) Antibody reformatting and determination of dissociation rate constants to HGFA: Anti-HGFA Fabs were reformatted into human IgG1 by cloning the VL and VH regions of individual clones into LPG3 and LPG4 vector, respectively (Liang et al, 2007). The full-length antibodies were transiently expressed in Chinese Hamster Ovary cells and purified on a protein-A column. To determine binding affinities of the reformatted anti-HGFA antibodies, surface plasmon resonance measurements on a BIAcore™-3000 instrument (GE Health Care, NJ) were performed. Rabbit anti-human IgG were chemically immobilized (amine coupling) on CM5 biosensor chips and the anti-HGFA antibodies were captured to give approximately 250 response units (RU). For kinetics measurements, two-fold serial dilutions of HGFA or active site-blocked HGFA (0.9 nM to 250 nM) were injected in PBT buffer at 25° C. with a flow rate of 30 μl/min. […] Association rates (kₒₙ) and dissociation rates (koff) were obtained by using a simple one-to-one Langmuir binding model (BIAEvaluation) and the equilibrium dissociation constants (KD) were calculated (koff/kₒₙ). […]
For orientation: In SPR one partner is held on a chip, and binding of the other changes the refractive index at the surface.

The target of experiment [4] is T2, HGFA (Val373-Ser655). In words: SPR (BIAcore 3000), steady state affinity, IgG captured, HGFA injected.
From the text: as §4

The target in experiment [5] is T4, HGFA-KQLR complex. In words: SPR (BIAcore 3000), IgG captured on anti-human IgG, HGFA-KQLR complex injected, 25 C.
From the text: as §3

Experiment [6] has as its target T2, HGFA (Val373-Ser655). In words: SPR.
From the text: as §4

Experiment [7] addresses T4, HGFA-KQLR complex. In words: SPR.
From the text: as §4

Experiment [8] has as its target T2, HGFA (Val373-Ser655). In words: competition ELISA: coated HGFA incubated with increasing Ab40, then 1 nM biotinylated KD1, detected with streptavidin-HRP; blocked ligand KD1; inhibition partial. An excerpt:
FIG. 3: Effects of active site inhibitors on antibody binding to HGFA. (a-b, e-f) Surface plasmon resonance (BIAcore) measurements of binding to immobilized antibodies, Ab40 (a-b) or Ab40.ΔTrp (e-f), after co-injection of HGFA (a,e) or HGFA-KQLR (b, f) complex (“KQLR” disclosed as SEQ ID NO: 10). (c) Competition binding (BIAcore) of HGFA to immobilized Ab40 in presence of different concentrations of KD1. (d) Competition binding ELISA measuring binding of HGFA to biotinylated KD1 in the presence of increasing antibody concentrations.
HGFA purification, enzymatic kinetic assays and competition ELISA: HGFA (Val373-Ser655) was produced by use of a baculovirus—insect cell expression system and purified on a Ni-NTA-agarose column, followed by size exclusion chromatography as described (Kirchhofer et al, 2003). […] After addition of S-2266 (0.24 mM˜Kₘ) the linear rates of the increase in absorbance at 405 nm were measured on a kinetic microplate reader (Spectramax-M5, Molecular devices, Sunnyvale, Calif.). […] Various concentrations of Chromogenix S-2266 were added and the linear rates of absorbance increase at 405 nm were measured. […] Biotinylated KD1 that was bound to HGFA was detected by streptavidin-HRP conjugates.

Changes are numbered by the printed parent chain.

B1: Ab39 (antibody, V domains shown)
VH: EVQLVESGGGLVQPGGSLRLSCAASGFTFNGTYIHWVRQAPGKGLEWVGGIYPAGGATYYADSVKGRFTISRDNSKNTLYLQMNSLRAEDTAVYYCAKWWAWPAFDYWGQGTLVTVSS
VL: DIQMTQSPSSLSASVGDRVTITCRASQDVSTAVAWYQQKPGKAPKLLIYSASFLYSGVPSRFSGSGSGTDFTLTISSLQPEDFATYYCQQSYTTPPTFGQGTKVEIKR
notes: also called parental Ab39; anti-HGFA antibody Ab39
Turning to B1, in the experiment with matriptase, the binding result is on record as “no binding”. Besides, in the experiment with HGFA (Val373-Ser655) [1], the Kd – broadly, the equilibrium constant for the complex coming apart – is 10.3 nM; the koff (in general, the rate constant with which the complex falls apart) amounted to 0.0053 s⁻¹; the kon (usually a measure of how fast the partners come together) stood at 520000 M⁻¹ s⁻¹. For the same molecule, the binding result in the experiment with factor XIIa is given as “no binding”. Further, in [2], the binding result was “no binding”.

B2: Ab40.ΔTrp (antibody, V domains shown)
VH: EVQLVESGGGLVQPGGSLRLSCAASGFTFNGTYIHWVRQAPGKGLEWVGGIYPAGGATYYADSVKGRFTISRDNSKNTLYLQMNSLRAEDTAVYYCAKWAWPAFDYWGQGTLVTVSS
VL: B1 VL with Y92N, T93R, T94A, P96A
notes: also called Trp96H-deletion mutant of Ab40
As to B2, the Kd in the experiment with HGFA-KQLR complex [3] is 161 nM; with HGFA (Val373-Ser655) [4], 150 nM.

B3: Ab40 (antibody, V domains shown)
VH: B1 VH
VL: B1 VL with Y92N, T93R, T94A, P96A
notes: also called anti-HGFA antibody Ab40
Turning to B3, the dissociation constant Kd stood at 1.35 nM with HGFA-KQLR complex [5] and 0.16 nM with HGFA (Val373-Ser655) [1]. The koff worked out at 0.00043 s⁻¹ in the experiment with HGFA-KQLR complex [5] and 0.000175 s⁻¹ with HGFA (Val373-Ser655) [1]. Besides, the kon with HGFA-KQLR complex [5] was found to be 320000 M⁻¹ s⁻¹; with HGFA (Val373-Ser655) [1], 1.08e+06 M⁻¹ s⁻¹. Further, the “fold improvement in binding affinity over Ab39” value with HGFA (Val373-Ser655) [6] stood at 64 fold. Further, the “fold decrease in affinity compared to HGFA” value with HGFA-KQLR complex [7] was found to be 8 fold. Further, the binding result (with matriptase; with factor XIIa; in experiment [2]) was “no binding” in each case. Besides, in the experiment with HGFA (Val373-Ser655) [8], the “IC50 (read off the curve)” value is ~1 nM.
